Assay results from US10466252B2, “Methods for selecting protease resistant polypeptides” (Glaxo Group Limited, priority 2008, dated 2019).

Legend:
[1] = target: T1, human GLP-1 receptor (Homo sapiens, UniProt P43220); experiment: GLP-1 receptor assay, CHO 6CRE GLP1R cells, luciferase reporter (384-well, STEADY GLO); type: cell-based
T1 construct: expressed in transfected cells; host or cells: CHO K1 (CHO 6CRE GLP1R)
Experimental: Background: GLP-1R is a 7TM G-protein coupled receptor which is expressed on CHO cells. […] CHO cells are stably transfected with the 6CRE/luc reporter gene. […] This then catalyses a reaction with luciferin to produce light which can be measured on a luminometer.
Suspension culture was maintained for forty-eight hours. Cells were then diluted into 15 mM HEPES, 2 mM L glutamine (2.5×10^5 cells/ml) and dispensed into 384-well plates containing 10 ul/well of the compound to be assayed. After the addition of assay controls, plates were returned to the incubator for 3h at 37° C. and 5% CO2. […] Plates were placed in the reader (Packard TopCount) and pre-incubated for 5 minutes prior to reading […] and plotting of results. Compound was assayed at a range of concentrations response curve to be fitted from which pC50s were calculated.

[2] = tested on: natural protease acting in E. coli cells; experiment: Integrity after expression in E. coli (non reducing SDS-PAGE, mass spectrometry, Edman sequencing); settings: MS and Edman sequencing
Experimental: Expression was performed by inoculation of a 50 milliliter culture of 2×TY media supplemented with OVERNIGHT EXPRESS™ autoinduction solutions (1 milliliter of Solution 1 (Cat. No. 71298), 2.5 milliliters of Solution 2 (Cat. No. 71299), 50 microliters of Solution 3 (Cat. No 71304), Novagen) and 100 microgram per milliliter of carbenicillin. Culture was carried overnight at 37° C., and then the culture supernatant was clarified by centrifugation at 3700×g for 45 minutes. The expressed protein was then purified from the clarified supernatant using PROTEIN L STREAMLINE™ (GE Healthcare, Cat. No. 28-4058-03, protein L coupled), and eluted from the Protein L using 0.1M glycine pH 2.0, then neutralized using 0.2 volumes of 1M Tris pH 8.0.
After the plasmid DNA pDOM35 comprising sequence of DMS7161 was transformed into BL21(DE3), glycerol stock was prepared from grown colonies, by scraping colonies into minimal media with glucose and addition of glycerol, final conentration of approximately 15%. Expression of DMS7161 was started by inoculation of the glycerol into 50 milliliters of minimal media (DMS7161 A) supplemented in Yeast Extract for final concentration 10 g/liter (DMS7161 B) so as to obtain the starting culture density of OD600=0.024. The culture was grown to OD600 of approximately 1.4 at 30° C., then induced by the addition of 0.1 mM isopropyl-beta-d-thiogalactoside. […]

[3] = target: T2, GLP-1 receptor (CHO 6CRE GLP1R cells) (Homo sapiens, UniProt P43220); experiment: GLP-1 assay, CHO 6CRE GLP1R cells, luciferase reporter (96-well, BRIGHT-GLO); type: cell-based
T2 construct: expressed in transfected cells; host or cells: CHO 6CRE GLP1R cells (CHO K1)
T2 sequence (P43220 24-463): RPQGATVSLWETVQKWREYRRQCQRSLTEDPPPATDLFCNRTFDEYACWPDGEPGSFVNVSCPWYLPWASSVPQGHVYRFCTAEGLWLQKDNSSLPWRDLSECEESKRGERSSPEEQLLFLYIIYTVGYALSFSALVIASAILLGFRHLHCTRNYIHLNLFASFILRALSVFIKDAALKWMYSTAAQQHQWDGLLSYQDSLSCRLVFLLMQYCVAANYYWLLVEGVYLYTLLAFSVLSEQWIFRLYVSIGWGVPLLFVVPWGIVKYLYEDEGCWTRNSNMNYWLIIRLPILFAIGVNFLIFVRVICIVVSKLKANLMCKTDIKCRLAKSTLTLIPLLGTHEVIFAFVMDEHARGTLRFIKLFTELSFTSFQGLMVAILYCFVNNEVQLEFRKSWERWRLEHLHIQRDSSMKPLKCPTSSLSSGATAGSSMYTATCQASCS

T1 sequence (P43220 24-463): as above

| Molecule | % max response ([1]; CHO 6CRE GLP1R cells, 3h at 37° C.) [%] | activity in GLP-1 receptor assay compared with GLP-1 peptide ([1]; FIG. 6) | integrity / degradation on expression in E. coli [2] | activity compared with DMS7148 [3] |
| --- | --- | --- | --- | --- |
| DMS7148: *GLP-1 variant (W25-D mutation) fused to ALBUDAB DOM7h-14 by PSS linker; SEQ ID NO: 16 (protein, Source Amino acid sequence of DMS7148 domain antibody made using molecular biology techniques.) HGEGTFTSDVSSYLEGQAAKEFIADLVEGRGPSSDIQMTQSPSSLSASVGDRVTITCRASQWIGSQLSWYQQKPGKAPKLLIMWRSSLQSGVPSRFSGSGSGTDFTLTISSLQPEDFATYYCAQGAALPRTFGQGTKVEIKR | 107 | active, however less active than GLP-1 peptide | well expressed in E. coli with the majority of material migrating at the expected size |  |
| DMS7161: *GLP-1 variant of DMS7148 fused to DOM7h-14-10 by PSS linker; A = minimal media, B = with Yeast Extract (protein, Source Amino acid sequence of DMS7161 domain antibody made using molecular biology techniques., *GLP-1 variant of DMS7148 fused to DOM7h-14-10 by PSS linker; A = minimal media, B = with Yeast Extract) HGEGTFTSDVSSYLEGQAAKEFIADLVEGRGPSSDIQMTQSPSSLSASVGDRVTITCRASQWIGSQLSWYQQKPGKAPKLLIMWRSSLQSGVPSRFSGSGSGTDFTLTISSLQPEDFATYYCAQGLRHPKTFGQGTKVEIKR |  |  | well expressed in E. coli with the majority of material migrating at the expected size | as active as DMS7148 |
